Measured values: patent US20090110632A1 (published 2009)

Molecular target: T1, MUC1-GST fusion protein containing seven variable number tandem repeat (VNTR) region (UniProt P15941 166-305)
T1 construct: domain: seven variable number tandem, repeat (VNTR) region; Produced by the applicant; coated on the ELISA plate at 1 ug/ml; also called MUC1 antigen; antigen; not shown: GST fusion partner
Test: ELISA, plate-coated MUC1-GST; EC50 against HMFG1 standard of the same assay
Experimental: 96-well plates (Nunc Maxisorp) were coated with 100 μl of MUC1 at 1 μg/ml in carbonate-bicarbonate buffer (Sigma C3041) overnight at 4° C. MUC1 antigen used here was produced by the applicant and is a MUC1-GST fusion protein containing seven variable number tandem, repeat (VNTR) region; VNTR is the antigen recognised by MUC1.
Plates were then washed with a wash solution of PBS (phosphate buffered saline), +0.05% Tween 20, and serial dilutions of HMFG1 samples (wildtype protein or mutant) in incubation buffer (200 ml of PBS +0.2 g BSA (bovine serum albumin)) applied to the wells and incubated at 37° C. for 1 hour.
Plates were again washed, and treated with detection antibody (1.0 μl HRP (horse radish peroxidase) anti-human IgG (BD Pharmingen, P# 555788, or Jackson P#209-035-056) +1 ml incubation buffer) at 37° C. for 30 min, washed with wash buffer, and developed with TMB (tetramethylbenzidine) reagent (100 μl TMB (Sigma, T8665) warmed to room temperature and 100 μl sulphuric acid was used to stop the reaction after approximately 6 minutes). The optical density of the plates was read at 450 nm on a Spectromax plate reader immediately after development.

T1 sequence (P15941 126-265): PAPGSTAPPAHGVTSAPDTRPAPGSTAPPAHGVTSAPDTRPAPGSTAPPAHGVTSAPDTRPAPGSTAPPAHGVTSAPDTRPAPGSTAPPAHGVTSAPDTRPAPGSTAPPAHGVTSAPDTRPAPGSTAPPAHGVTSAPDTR

Binder | fold increased affinity compared to HMFG1 standard (from EC50)
N56A HMFG1 (antibody, human IgG1, kappa, V domains shown) VH: QVQLVQSGAEVKKPGASVKVSCKASGYTFSAYWIEWVRQAPGKGLEWVGEILPGSANSRYNEKFKGRVTVTRDTSTNTAYMELSSLRSEDTAVYYCARSYDFAWFAYWGQGTLVTVSS VL: DIQMTQSPSSLSASVGDRVTITCKSSQSLLYSSNQKIYLAWYQQKPGKAPKLLIYWASTRESGVPSRFSGSGSGTDFTFTISSLQPEDIATYYCQQYYRYPRTFGQGTKVEIKR | ~5 fold
N56C HMFG1 (antibody, human IgG1, kappa, V domains shown) VH: QVQLVQSGAEVKKPGASVKVSCKASGYTFSAYWIEWVRQAPGKGLEWVGEILPGSCNSRYNEKFKGRVTVTRDTSTNTAYMELSSLRSEDTAVYYCARSYDFAWFAYWGQGTLVTVSS VL: DIQMTQSPSSLSASVGDRVTITCKSSQSLLYSSNQKIYLAWYQQKPGKAPKLLIYWASTRESGVPSRFSGSGSGTDFTFTISSLQPEDIATYYCQQYYRYPRTFGQGTKVEIKR | ~20 fold
N56G HMFG1 (antibody, human IgG1, kappa, V domains shown, also called N56G mutant) VH: QVQLVQSGAEVKKPGASVKVSCKASGYTFSAYWIEWVRQAPGKGLEWVGEILPGSGNSRYNEKFKGRVTVTRDTSTNTAYMELSSLRSEDTAVYYCARSYDFAWFAYWGQGTLVTVSS VL: DIQMTQSPSSLSASVGDRVTITCKSSQSLLYSSNQKIYLAWYQQKPGKAPKLLIYWASTRESGVPSRFSGSGSGTDFTFTISSLQPEDIATYYCQQYYRYPRTFGQGTKVEIKR | ~10 fold
